Results: paper doi:10.1101/459156

Target: Hexahistidine-tagged ALIX protein (UniProt Q8WUM4)
Assay: MST

UniProt Q8WUM4, sequence (Q8WUM4 whole entry): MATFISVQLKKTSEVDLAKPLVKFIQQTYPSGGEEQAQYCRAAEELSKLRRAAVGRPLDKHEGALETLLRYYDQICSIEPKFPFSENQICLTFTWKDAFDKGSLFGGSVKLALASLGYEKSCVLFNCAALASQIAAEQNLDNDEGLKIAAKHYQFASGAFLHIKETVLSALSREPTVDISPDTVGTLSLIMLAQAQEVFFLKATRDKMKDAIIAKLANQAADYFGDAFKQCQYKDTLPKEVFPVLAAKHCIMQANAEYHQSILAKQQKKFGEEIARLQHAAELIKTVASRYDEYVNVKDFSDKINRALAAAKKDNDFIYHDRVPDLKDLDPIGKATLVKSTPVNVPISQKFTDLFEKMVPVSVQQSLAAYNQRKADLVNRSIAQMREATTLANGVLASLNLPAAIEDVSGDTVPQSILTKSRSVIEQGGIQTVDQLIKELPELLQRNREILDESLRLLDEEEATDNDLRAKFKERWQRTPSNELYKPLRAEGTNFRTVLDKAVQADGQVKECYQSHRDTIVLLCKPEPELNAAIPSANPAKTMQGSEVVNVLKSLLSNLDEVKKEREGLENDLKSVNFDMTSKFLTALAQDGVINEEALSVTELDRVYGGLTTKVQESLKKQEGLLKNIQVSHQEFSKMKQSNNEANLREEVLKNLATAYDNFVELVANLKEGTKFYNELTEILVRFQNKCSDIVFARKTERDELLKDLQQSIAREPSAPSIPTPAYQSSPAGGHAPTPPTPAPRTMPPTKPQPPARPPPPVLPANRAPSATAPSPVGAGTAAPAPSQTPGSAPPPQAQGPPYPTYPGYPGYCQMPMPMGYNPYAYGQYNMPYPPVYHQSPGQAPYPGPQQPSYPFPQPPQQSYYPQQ

| Substance | Kd [nM] |
| --- | --- |
| HIV-1CWT Gag late domain motif peptide | 290 |
| HIV-1BWT Gag late domain motif peptide | 32 |
